Measured values from patent US20240343803A1 (SHANDONG SIMCERE BIOPHARMACEUTICAL, published 2024).

T1: human PVRIG on FlpinCHO-PVRIG cells (human, UniProt Q6DKI7 41-326)
T1 construct: whole, on cells
T1 sequence (looked up): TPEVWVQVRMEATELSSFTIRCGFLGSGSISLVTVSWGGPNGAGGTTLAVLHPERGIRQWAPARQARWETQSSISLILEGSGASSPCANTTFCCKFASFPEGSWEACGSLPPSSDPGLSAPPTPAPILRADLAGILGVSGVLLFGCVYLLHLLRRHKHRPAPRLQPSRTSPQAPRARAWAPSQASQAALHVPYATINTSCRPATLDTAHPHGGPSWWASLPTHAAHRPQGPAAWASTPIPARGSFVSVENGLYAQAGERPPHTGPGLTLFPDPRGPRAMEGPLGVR

T2: human PVRIG-his (AcroBiosystems, Cat NO. PVG-H52H4) (human, UniProt Q6DKI7 41-171, limits assumed)
T2 construct: also called human PVRIG protein
T2 sequence (looked up): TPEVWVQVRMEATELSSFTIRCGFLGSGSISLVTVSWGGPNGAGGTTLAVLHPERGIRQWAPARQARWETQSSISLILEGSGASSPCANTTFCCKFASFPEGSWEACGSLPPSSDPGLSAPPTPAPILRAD

T3: Full-length human TIGIT on CHO-K1 cells (CHO-K1 human TIGIT) (human, UniProt Q495A1 22-244)
T3 construct: NCBI XP_024309156.1; the entry includes the signal peptide (limits not recoverable); The strain (high, medium, low) is named under assay; also called high expression strain 1D2; medium expression strain 2D10
T3 sequence: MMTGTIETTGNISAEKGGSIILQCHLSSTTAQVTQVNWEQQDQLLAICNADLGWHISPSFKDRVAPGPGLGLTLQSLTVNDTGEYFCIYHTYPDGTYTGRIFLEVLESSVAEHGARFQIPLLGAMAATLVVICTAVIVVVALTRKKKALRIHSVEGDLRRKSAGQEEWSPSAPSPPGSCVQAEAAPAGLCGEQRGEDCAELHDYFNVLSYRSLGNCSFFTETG


Assays:
[1] = target: T1, human PVRIG on FlpinCHO-PVRIG cells; test: FACS, FlpinCHO-PVRIG cells
Protocol: The Ham's F12 (Gibico, 21127-022) complete medium containing 10% FBS was then added to terminate the digestion and acquire cell suspension. After counting with a cell counter (Beckman Coulter, Vi-CELL), an appropriate amount of cell suspension was centrifuged at 350×g to remove the supernatant, washed twice with PBS, stained with Zombie violet (Biolegend, 423114) and incubated at room temperature for 20 minutes. After incubation, the cells were added with staining buffer (2% FBS+PBS) to stop staining, centrifuged at 350×g to remove the supernatant, washed twice and resuspended with staining buffer to a density of 2×10⁶ cells/mL. The cells were plated into a 96-well plate (50 μL of cell suspension per well) for further use. The antibodies were diluted from the highest concentration of 46 nM (two-fold concentration) with staining buffer by 3.3-fold serial dilution. The diluted antibodies were added to the well containing 50 μL of cell suspension. The plate was placed on a microplate shaker at 400 rpm for 1 minute to fully mix the antibodies and cells, and then incubated at 4° C. for 30 minutes. After the incubation, the cells were washed twice with staining buffer (200 μL per well) and centrifuged at 350×g for 5 minutes to discard the supernatant. The PE goat anti-human IgG Fc antibody (ebioscience, 12-4998-82) was diluted 250 times with staining buffer, added into the washed wells (100 μL per well), mixed well, and stained at 4° C. for 30 minutes. After staining, the cells were washed twice with staining buffer, finally resuspended with 200 μL staining buffer and analyzed by flow cytometry (BD, Canto II). The stronger the signal, the stronger the ability of the antibodies binds to PVRIG. An antibody binding curve was drawn with concentration of antibodies as the abscissa and the corresponding Mean Fluorescence Intensity (MFI) as the ordinate. The AUC value of the curve was calculated by using a Four Parameter Logistic Fit (GraphPadPrism9). The stronger the AUC value, the stronger the ability of the antibodies binds to FlpinCHO-PVRIG and FlpinCHO-cyno PVRIG. […] The binding activity of the antibodies was normalized to the positive control COM701-hIgG1 and SRF813-hIgG1.

[2] = target: T2, human PVRIG-his (AcroBiosystems, Cat …); test: SPR (BIAcore), antibody captured on Protein A chip, human PVRIG-His analyte
Protocol: Biacore was used to detect the specific binding between anti-PVRIG antibody and human PVRIG protein. Protein A chip was used in the BIAcore assay. The time required for the chip to capture the diluted antibody and saturate the binding antigen to reach Rₘₐₓ (Maximum binding capacity, 50 RU) was measured by manual run. […] The affinity of antibody for antigen was measured by multi-cycle kinetics. In each cycle, the antibodies were injected prior to the injection of gradient concentraions of PVRIG proteins allowing the occurrence of antibody-antigen association and dissociation After each cycle, the Protein A chip was regenerated by Glycine, pH 1.5 (to remove the proteins on the chip). The affinity of antibody for antigen was calculated by BIAcore T200 analysis software.
The methods refer to Example 10.

[3] = target: T3, Full-length human TIGIT on CHO-K1 cells …; test: FACS; CHO-K1 human TIGIT medium expression strain
How it was run: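 Binding to CHO-K1 cells expressing full-length human or cynomolgus monkey TIGIT, measured by flow cytometry. Cells at 2×10⁵/50 μL in 1% BSA-PBS were mixed 1:1 with antibodies serially diluted 3-fold over 12 points from 80 nM and held at 4° C for 60 min. EC50 came from the binding curves.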

[4] = target: T4, Fusion protein of extracellular domain of human TIGIT and human IgG1 Fc fragment (human TIGIT ECD-hFc) (human); test: blocking of TIGIT ECD-hFc binding to CHO-K1 CD155 cells
T4 construct: The entry includes the signal peptide (limits not recoverable) and the human IgG1 Fc
T4 sequence (chain, as listed by the source limits assumed): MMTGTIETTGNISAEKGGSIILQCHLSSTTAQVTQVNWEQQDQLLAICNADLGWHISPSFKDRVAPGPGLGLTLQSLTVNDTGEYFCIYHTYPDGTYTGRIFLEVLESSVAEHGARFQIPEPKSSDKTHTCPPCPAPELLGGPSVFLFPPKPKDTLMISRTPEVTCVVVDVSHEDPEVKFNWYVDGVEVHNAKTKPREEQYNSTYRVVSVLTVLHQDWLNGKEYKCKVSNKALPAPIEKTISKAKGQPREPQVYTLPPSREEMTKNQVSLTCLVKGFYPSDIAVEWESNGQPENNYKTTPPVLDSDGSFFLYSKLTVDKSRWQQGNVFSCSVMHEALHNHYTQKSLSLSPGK
How it was run: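 IC50 values come from inhibition curves in a cell-based ELISA using CHO-K1 CD155 cells. Antibodies premixed for 0.5 h with human TIGIT ECD-hFc (working concentration 30 ng/mL) were added to the fixed, blocked cells for 1.5-2 h at 37° C. Bound TIGIT was then detected with HRP secondary antibody and TMB at OD450 nm.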

[5] = target: T3, Full-length human TIGIT on CHO-K1 cells …; test: FACS; blocking of Bio-CD155-His binding to CHO-K1 human TIGIT cells
How it was run: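 Flow cytometry blocking assay in CHO-K1 human TIGIT cells (2×10⁵/40 μL in 1% BSA-PBS). Cells were mixed with equal volumes of antibody (12-point 3-fold dilution from 210 nM) and biotinylated CD155-His (diluted to 3 μg/mL), then held at 4° C for 60 min. Bound ligand was detected with APC-streptavidin (1:1700, 4° C, 40 min) on a BD Canto II. IC50 came from the inhibition curves.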

Row | Binder | AUC % to COM701-hIgG1 [1] [%] | AUC % to SRF813-hIgG1 [1] [%] | AUC % to parental Ab [1] [%] | Kd [2] [nM] | koff [2] [s⁻¹] | kon [2] [M⁻¹ s⁻¹] | EC50 [3] [nM] | IC50 [4] [nM] | IC50 [5] [nM]
1 | PVRIG-A118-H3 (Fc fusion, humanized variant of PVRIG-A118; also called A118.VH3; not shown: constant part not restated for the humanized forms; parents are VHH-hinge-CH2-CH3 of human IgG1; detected by anti-human) EVQLVESGGGLVQPGGSLRLSCAASETYFDLYVMGWYRQAPGKDRELVATITYTGSIKYVDSVKGRFTISRGDAKNSLYLQMNSLRAEDTAVYYCNADPSGLGRKVYWGQGTMVTVSS | 129 | 180 | 94.5 | 1.35 | 0.00349 | 2.59e+06 | – | – | –
2 | PVRIG-A118-H2 (Fc fusion, humanized variant of PVRIG-A118; also called A118.VH2; not shown: constant part not restated for the humanized forms; parents are VHH-hinge-CH2-CH3 of human IgG1; detected by anti-human) EVQLVESGGGLVQPGGSLRLSCAASETYFDLYVMGWYRQAPGKDRELVATITYTGSIKYVDSVKGRFTISRDNAKNSLYLQMNSLRAEDTAVYYCNADPSGLGRKVYWGQGTMVTVSS | 125 | 174 | 91.3 | 0.517 | 0.00082 | 1.59e+06 | – | – | –
3 | PVRIG-A118-H1 (Fc fusion, humanized variant of PVRIG-A118; also called A118.VH1; not shown: constant part not restated for the humanized forms; parents are VHH-hinge-CH2-CH3 of human IgG1; detected by anti-human) EVQLVESGGGLVQPGGSLRLSCAASETYFDLYVMGWYRQAPGKDRELVATITYTGSIYYVDSVKGRFTISRDNAKNSLYLQMNSLRAEDTAVYYCNADPSGLGRKVYWGQGTMVTVSS | 127 | 178 | 93.2 | 0.478 | 0.000658 | 1.38e+06 | – | – | –
4 | TIGIT-002-H4L3 (antibody, V domains shown, Humanized anti-TIGIT antibody) VH: EVQLQESGPGLVKPSETLSLTCAVSGYSITSDSWNWIRQPPGKKLEYIGYISYSGNTYYNPSLKSRVTISRDTSKNQFSLKLSSVTAADTAVYYCARLDFSNYGGAVDYWGQGTTVTVSS VL: DIVMTQSPDSLAVSLGERATINCKASQNVRTAVAWYQQKPGQSPKLMIYSASYRYTGVPDRFSGSGSGTDFTLTISSLQAEDVAVYYCQQYYTTPWTFGGGTKVEIK | – | – | – | – | – | – | 0.228 | 0.354 | 0.137
5 | TIGIT-005-H2L1d (antibody, V domains shown, Humanized anti-TIGIT antibody with NG-site mutation in VL) VH: EVQLVQSGAEVKKPGASVKVSCKASGYAFTNYLIEWVRQAPGQRLEWMGVINPGSGGTNYKEKFKGRVTITADKSSSTAYMELSSLRSEDTAVYYCARGEYFFFDYWGQGTTVTVSS VL: DIVMTQSPDSLAVSLGERATINCKASQHVSNAVAWYQHKPGQSPKLLIYSASYRYTGVPDRFSGSGSGTDFTLTISSLQAEDVAVYYCQQHYNTPHTFGGGTKVEIK | – | – | – | – | – | – | 0.285 | 0.376 | 0.15
6 | TIGIT-006-H5L3 (antibody, V domains shown, Humanized anti-TIGIT antibody) VH: EVQLQESGPGLVKPSETLSLTCAVSGYSMTSDYWNWIRQPPGKKLEYIGYISYSGRTYYNPSLKSRVTISRDTSKNQFSLKLSSVTAADTAVYYCARGDYSNYGGAMYDWGQGTTVTVSS VL: DIVMTQSPDSLAVSLGERATINCRASQGVSTTIAWYQQKPGQSPKLLIYSASYRYTGVPRFSGSGSGTDFTLTISSLQAEDVAVYYCQQYYSSPFTFGGGTKVEIK | – | – | – | – | – | – | 0.396 | 0.587 | 0.171
7 | TIGIT-070-H1L1 (antibody, V domains shown, Humanized anti-TIGIT antibody) VH: EVQLVQSGAEVKKPGASVKVSCKASGYTFTNYYMHWVRQAPGQRLEWMGRIDPDSGGSKYNEKFKSRVTITVDKSASTAYMELSSLRSEDTAVYYCAREGHYGFYSDYWGQGTTVTVSS VL: DIQMTQSPSSLSASVGDRVTITCRVSENIYSYLAWYQQKPGKSPKLLIYNAKTLAEGVPSRFSGSGSGTDFTLTISSLQPEDFATYYCQHHYGNPLTFGPGTKVDIK | – | – | – | – | – | – | 0.45 | 0.502 | 0.212
8 | PVRIG-A50-H1d (Fc fusion, humanized variant of PVRIG-A50; also called A50.VH1d; not shown: constant part not restated for the humanized forms; parents are VHH-hinge-CH2-CH3 of human IgG1; detected by anti-human) EVQLVESGGGLVQPGGSLRLSCAASGFTFSYYDMSWVRQAPGKGLEWVSTINSNGGRTSYVDSVKGRFTISRDNSKNTLYLQMNSLRAEDTAVYYCVEGDPHNFGLESLSLRDFGSWGQGTMVTVSS | 63.1 | 112 | 85.9 | 0.0545 | 1.43e-05 | 262000 | – | – | –
